Measured values from PMC3046972, “Phosphorylation-Dependent 14-3-3 Binding to LRRK2 Is Impaired by Common Mutations of Familial Parkinson's Disease” (PLoS ONE, 2011).
Where no end group is shown, it is not given here. [ ]: non-standard residue; d: D form. pS = N[C@@H](COP(=O)(O)O)C(=O)O

B1: phospho-peptide QRHSNpSLGPC (containing pS935 of LRRK2) (peptide)
peptide: Ac-QRHSN[pS]LGPC
notes: stretch of LRRK2 around S935; C-terminal cysteine printed only in the methods; The results print the peptide without the last C (QRHSNpSLGP); the methods print QRHSNpSLGPC; also called pS935-containing peptide; phosphorylated peptide (pS935); source: synthetic peptide (The Rockefeller University Proteomics Resource Center, HPLC purified)

Legend:
Myc-14-3-3γ wild type = Myc-14-3-3γ wild type (UniProt P61981); assay: co-IP; HEK-293T cells co-transfected with FLAG-LRRK2 (wild type or mutant) and Myc-14-3-3; immunoprecipitation with anti-Myc antibody overnight, washes with modified RIPA buffer (300 mM NaCl); blot with anti-FLAG; Figure 5C quantified with LI-COR Odyssey
GST-14-3-3γ = biological target: T1, GST-14-3-3γ (UniProt P61981 1-247); assay: pull-down; competition: synthetic peptide at various concentrations added to brain lysate of FLAG-LRRK2 Wt transgenic mice for 1 hour, then GST-14-3-3γ beads for 4 hours; read-out is the FLAG-LRRK2 pulled down; conditions: both partners purified
T1 construct: 14-3-3 gamma; also called purified GST-14-3-3γ; Sepharose bead-conjugated GST-14-3-3γ; source: bacteria (100 µM IPTG, 4 hours at 37°C), purified following the manufacturer's instruction (GE Healthcare)
T1 sequence (looked up): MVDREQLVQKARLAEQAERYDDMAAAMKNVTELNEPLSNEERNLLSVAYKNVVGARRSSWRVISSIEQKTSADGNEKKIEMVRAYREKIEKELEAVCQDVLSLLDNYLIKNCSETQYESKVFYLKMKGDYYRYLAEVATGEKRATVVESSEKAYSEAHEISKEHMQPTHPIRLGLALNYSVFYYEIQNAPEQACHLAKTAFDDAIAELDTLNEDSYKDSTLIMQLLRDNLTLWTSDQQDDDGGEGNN

Molecule | reduction of co-immunoprecipitation with Myc-14-3-3γ compared to wild type LRRK2 (Myc-14-3-3γ wild type) [%] | binding result (GST-14-3-3γ)
FLAG-LRRK2 G2019S mutant, Q5S006 1-2527 | < 20 | 
FLAG-LRRK2 S935A mutant (from UniProt Q5S006 1-2527) (natural protein) | 90 | 
B1 |  | binds
